Results published in patent publication US20250368745A1 (published 2025).

T1: human IL-18BP (human, UniProt O95998 31-194)
T1 construct: UniProt printed as 095998; also called hIL-18BP
T1 sequence: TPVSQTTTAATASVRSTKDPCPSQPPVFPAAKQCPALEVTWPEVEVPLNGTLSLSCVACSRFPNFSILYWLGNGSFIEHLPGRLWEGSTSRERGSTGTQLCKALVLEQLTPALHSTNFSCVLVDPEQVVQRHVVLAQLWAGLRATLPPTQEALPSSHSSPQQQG

T2: cynomolgus IL-18BP (cynomolgus monkey)
T2 construct: also called cyno IL-18BP; cyIL-18BP
T2 chain: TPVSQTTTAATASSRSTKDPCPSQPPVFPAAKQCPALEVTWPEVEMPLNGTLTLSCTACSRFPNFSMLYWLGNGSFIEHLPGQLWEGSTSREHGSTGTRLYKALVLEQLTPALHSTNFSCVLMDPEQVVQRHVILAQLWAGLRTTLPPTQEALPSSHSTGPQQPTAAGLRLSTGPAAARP


What was measured:
[1] = target: T1, human IL-18BP; assay: BLI, apparent KD
[2] = target: T2, cynomolgus IL-18BP; assay: BLI, apparent KD

Binder	Kd [1]	Kd [2]
SA301a HC-I99S (antibody, name in Kabat numbering, V domains shown, IgG1 kappa) VH: QVQLQESGPGLVKPSQTLSLTCTVSGYSITSDYNSHWIRQPPGKGLEWIGYIHYSGSTNYNPSLKSRVTISRDTSKNQFSLKLSSVTAADTAVYYCARNYGSSYVNYFDYWGQGTLVTVSS VL: EIVLTQSPATLSLSPGERATLSCSASSSVSYMYWYQQKPGQAPRPLIYRTSNLASGIPARFSGSGSGTDFTLTISSLEPEDFAVYYCQQYHSYPTFGGGTKVEIK	0.56 nM	0.53 nM
SA301a HC-Y100R (antibody, V domains shown) VH: QVQLQESGPGLVKPSQTLSLTCTVSGYSITSDYNSHWIRQPPGKGLEWIGYIHYSGSTNYNPSLKSRVTISRDTSKNQFSLKLSSVTAADTAVYYCARNYGSIRVNYFDYWGQGTLVTVSS VL: EIVLTQSPATLSLSPGERATLSCSASSSVSYMYWYQQKPGQAPRPLIYRTSNLASGIPARFSGSGSGTDFTLTISSLEPEDFAVYYCQQYHSYPTFGGGTKVEIK	1.32 nM	2.06 nM
SA301a HC-Y100H (antibody, V domains shown) VH: QVQLQESGPGLVKPSQTLSLTCTVSGYSITSDYNSHWIRQPPGKGLEWIGYIHYSGSTNYNPSLKSRVTISRDTSKNQFSLKLSSVTAADTAVYYCARNYGSIHVNYFDYWGQGTLVTVSS VL: EIVLTQSPATLSLSPGERATLSCSASSSVSYMYWYQQKPGQAPRPLIYRTSNLASGIPARFSGSGSGTDFTLTISSLEPEDFAVYYCQQYHSYPTFGGGTKVEIK	1.3 nM	1.1 nM
SA301a HC-Y100G (antibody, V domains shown) VH: QVQLQESGPGLVKPSQTLSLTCTVSGYSITSDYNSHWIRQPPGKGLEWIGYIHYSGSTNYNPSLKSRVTISRDTSKNQFSLKLSSVTAADTAVYYCARNYGSIGVNYFDYWGQGTLVTVSS VL: EIVLTQSPATLSLSPGERATLSCSASSSVSYMYWYQQKPGQAPRPLIYRTSNLASGIPARFSGSGSGTDFTLTISSLEPEDFAVYYCQQYHSYPTFGGGTKVEIK	0.51 nM	0.48 nM
SA301a HC-Y100I (antibody, V domains shown) VH: QVQLQESGPGLVKPSQTLSLTCTVSGYSITSDYNSHWIRQPPGKGLEWIGYIHYSGSTNYNPSLKSRVTISRDTSKNQFSLKLSSVTAADTAVYYCARNYGSIIVNYFDYWGQGTLVTVSS VL: EIVLTQSPATLSLSPGERATLSCSASSSVSYMYWYQQKPGQAPRPLIYRTSNLASGIPARFSGSGSGTDFTLTISSLEPEDFAVYYCQQYHSYPTFGGGTKVEIK	0.94 nM	1.02 nM
SA301a HC-Y100V (antibody, V domains shown) VH: QVQLQESGPGLVKPSQTLSLTCTVSGYSITSDYNSHWIRQPPGKGLEWIGYIHYSGSTNYNPSLKSRVTISRDTSKNQFSLKLSSVTAADTAVYYCARNYGSIVVNYFDYWGQGTLVTVSS VL: EIVLTQSPATLSLSPGERATLSCSASSSVSYMYWYQQKPGQAPRPLIYRTSNLASGIPARFSGSGSGTDFTLTISSLEPEDFAVYYCQQYHSYPTFGGGTKVEIK	1.59 nM	2.55 nM
SA301a HC-Y100L (antibody, V domains shown) VH: QVQLQESGPGLVKPSQTLSLTCTVSGYSITSDYNSHWIRQPPGKGLEWIGYIHYSGSTNYNPSLKSRVTISRDTSKNQFSLKLSSVTAADTAVYYCARNYGSILVNYFDYWGQGTLVTVSS VL: EIVLTQSPATLSLSPGERATLSCSASSSVSYMYWYQQKPGQAPRPLIYRTSNLASGIPARFSGSGSGTDFTLTISSLEPEDFAVYYCQQYHSYPTFGGGTKVEIK	1.06 nM	1.41 nM
SA301a HC-Y100S (antibody, V domains shown) VH: QVQLQESGPGLVKPSQTLSLTCTVSGYSITSDYNSHWIRQPPGKGLEWIGYIHYSGSTNYNPSLKSRVTISRDTSKNQFSLKLSSVTAADTAVYYCARNYGSISVNYFDYWGQGTLVTVSS VL: EIVLTQSPATLSLSPGERATLSCSASSSVSYMYWYQQKPGQAPRPLIYRTSNLASGIPARFSGSGSGTDFTLTISSLEPEDFAVYYCQQYHSYPTFGGGTKVEIK	0.72 nM	3.27 nM
SA301a HC-V100aM (antibody, name in Kabat numbering, V domains shown, IgG1 kappa) VH: QVQLQESGPGLVKPSQTLSLTCTVSGYSITSDYNSHWIRQPPGKGLEWIGYIHYSGSTNYNPSLKSRVTISRDTSKNQFSLKLSSVTAADTAVYYCARNYGSIYMNYFDYWGQGTLVTVSS VL: EIVLTQSPATLSLSPGERATLSCSASSSVSYMYWYQQKPGQAPRPLIYRTSNLASGIPARFSGSGSGTDFTLTISSLEPEDFAVYYCQQYHSYPTFGGGTKVEIK	0.8 nM	0.22 nM
SA301a HC-N100bS (antibody, name in Kabat numbering, V domains shown, IgG1 kappa) VH: QVQLQESGPGLVKPSQTLSLTCTVSGYSITSDYNSHWIRQPPGKGLEWIGYIHYSGSTNYNPSLKSRVTISRDTSKNQFSLKLSSVTAADTAVYYCARNYGSIYVSYFDYWGQGTLVTVSS VL: EIVLTQSPATLSLSPGERATLSCSASSSVSYMYWYQQKPGQAPRPLIYRTSNLASGIPARFSGSGSGTDFTLTISSLEPEDFAVYYCQQYHSYPTFGGGTKVEIK	0.49 nM	0.09 nM
SA301a HC-V100aL (antibody, name in Kabat numbering, V domains shown, IgG1 kappa) VH: QVQLQESGPGLVKPSQTLSLTCTVSGYSITSDYNSHWIRQPPGKGLEWIGYIHYSGSTNYNPSLKSRVTISRDTSKNQFSLKLSSVTAADTAVYYCARNYGSIYLNYFDYWGQGTLVTVSS VL: EIVLTQSPATLSLSPGERATLSCSASSSVSYMYWYQQKPGQAPRPLIYRTSNLASGIPARFSGSGSGTDFTLTISSLEPEDFAVYYCQQYHSYPTFGGGTKVEIK	2.54 nM	0.81 nM
SA301a HC-I99V (antibody, name in Kabat numbering, V domains shown, IgG1 kappa) VH: QVQLQESGPGLVKPSQTLSLTCTVSGYSITSDYNSHWIRQPPGKGLEWIGYIHYSGSTNYNPSLKSRVTISRDTSKNQFSLKLSSVTAADTAVYYCARNYGSVYVNYFDYWGQGTLVTVSS VL: EIVLTQSPATLSLSPGERATLSCSASSSVSYMYWYQQKPGQAPRPLIYRTSNLASGIPARFSGSGSGTDFTLTISSLEPEDFAVYYCQQYHSYPTFGGGTKVEIK	0.05 nM	0.33 nM
SA301a HC-N100bD (antibody, name in Kabat numbering, V domains shown, IgG1 kappa) VH: QVQLQESGPGLVKPSQTLSLTCTVSGYSITSDYNSHWIRQPPGKGLEWIGYIHYSGSTNYNPSLKSRVTISRDTSKNQFSLKLSSVTAADTAVYYCARNYGSIYVDYFDYWGQGTLVTVSS VL: EIVLTQSPATLSLSPGERATLSCSASSSVSYMYWYQQKPGQAPRPLIYRTSNLASGIPARFSGSGSGTDFTLTISSLEPEDFAVYYCQQYHSYPTFGGGTKVEIK	2.3 nM	0.96 nM
SA301a HC-V100aQ (antibody, name in Kabat numbering, V domains shown, IgG1 kappa) VH: QVQLQESGPGLVKPSQTLSLTCTVSGYSITSDYNSHWIRQPPGKGLEWIGYIHYSGSTNYNPSLKSRVTISRDTSKNQFSLKLSSVTAADTAVYYCARNYGSIYQNYFDYWGQGTLVTVSS VL: EIVLTQSPATLSLSPGERATLSCSASSSVSYMYWYQQKPGQAPRPLIYRTSNLASGIPARFSGSGSGTDFTLTISSLEPEDFAVYYCQQYHSYPTFGGGTKVEIK	0.45 nM	0.1 nM
SA301a HC-V100aR (antibody, name in Kabat numbering, V domains shown, IgG1 kappa) VH: QVQLQESGPGLVKPSQTLSLTCTVSGYSITSDYNSHWIRQPPGKGLEWIGYIHYSGSTNYNPSLKSRVTISRDTSKNQFSLKLSSVTAADTAVYYCARNYGSIYRNYFDYWGQGTLVTVSS VL: EIVLTQSPATLSLSPGERATLSCSASSSVSYMYWYQQKPGQAPRPLIYRTSNLASGIPARFSGSGSGTDFTLTISSLEPEDFAVYYCQQYHSYPTFGGGTKVEIK	0.19 nM	0.08 nM
SA301a HC-V100aE (antibody, name in Kabat numbering, V domains shown, IgG1 kappa) VH: QVQLQESGPGLVKPSQTLSLTCTVSGYSITSDYNSHWIRQPPGKGLEWIGYIHYSGSTNYNPSLKSRVTISRDTSKNQFSLKLSSVTAADTAVYYCARNYGSIYENYFDYWGQGTLVTVSS VL: EIVLTQSPATLSLSPGERATLSCSASSSVSYMYWYQQKPGQAPRPLIYRTSNLASGIPARFSGSGSGTDFTLTISSLEPEDFAVYYCQQYHSYPTFGGGTKVEIK	0.51 nM	0.22 nM
SA301a HC-N100bV (antibody, name in Kabat numbering, V domains shown, IgG1 kappa) VH: QVQLQESGPGLVKPSQTLSLTCTVSGYSITSDYNSHWIRQPPGKGLEWIGYIHYSGSTNYNPSLKSRVTISRDTSKNQFSLKLSSVTAADTAVYYCARNYGSIYVVYFDYWGQGTLVTVSS VL: EIVLTQSPATLSLSPGERATLSCSASSSVSYMYWYQQKPGQAPRPLIYRTSNLASGIPARFSGSGSGTDFTLTISSLEPEDFAVYYCQQYHSYPTFGGGTKVEIK	2.16 nM	1.16 nM
SA301a HC-N100bH (antibody, name in Kabat numbering, V domains shown, IgG1 kappa) VH: QVQLQESGPGLVKPSQTLSLTCTVSGYSITSDYNSHWIRQPPGKGLEWIGYIHYSGSTNYNPSLKSRVTISRDTSKNQFSLKLSSVTAADTAVYYCARNYGSIYVHYFDYWGQGTLVTVSS VL: EIVLTQSPATLSLSPGERATLSCSASSSVSYMYWYQQKPGQAPRPLIYRTSNLASGIPARFSGSGSGTDFTLTISSLEPEDFAVYYCQQYHSYPTFGGGTKVEIK	0.69 nM	1.03 nM
SA301a HC-V100aY (antibody, name in Kabat numbering, V domains shown, IgG1 kappa) VH: QVQLQESGPGLVKPSQTLSLTCTVSGYSITSDYNSHWIRQPPGKGLEWIGYIHYSGSTNYNPSLKSRVTISRDTSKNQFSLKLSSVTAADTAVYYCARNYGSIYYNYFDYWGQGTLVTVSS VL: EIVLTQSPATLSLSPGERATLSCSASSSVSYMYWYQQKPGQAPRPLIYRTSNLASGIPARFSGSGSGTDFTLTISSLEPEDFAVYYCQQYHSYPTFGGGTKVEIK	27.7 nM	0.58 nM
SA301a HC-V100aP (antibody, name in Kabat numbering, V domains shown, IgG1 kappa) VH: QVQLQESGPGLVKPSQTLSLTCTVSGYSITSDYNSHWIRQPPGKGLEWIGYIHYSGSTNYNPSLKSRVTISRDTSKNQFSLKLSSVTAADTAVYYCARNYGSIYPNYFDYWGQGTLVTVSS VL: EIVLTQSPATLSLSPGERATLSCSASSSVSYMYWYQQKPGQAPRPLIYRTSNLASGIPARFSGSGSGTDFTLTISSLEPEDFAVYYCQQYHSYPTFGGGTKVEIK	0.49 nM	0.15 nM
